Test results reported in article PMC10654636.
pKd: −log10 of the molar value.

Experiments:
Assay in all cases: BLI; biotinylated recombinant human FcγR loaded on SAX (streptavidin) biosensors, antibody in serial dilutions in solution; kinetic buffer 1% casein, 0.2% Tween20, 1x PBS pH 7.4; 30°C; Octet HTX; global fit, 1:1 Langmuir model
[1] = molecular target: human FcγRI (CD64), biotinylated recombinant protein (human) (UniProt P12314)
[2] = molecular target: human FcγRIIIa V158 (CD16 V158), biotinylated recombinant protein (human)
[3] = molecular target: human FcγRIIa R131 (CD32a R131), biotinylated recombinant protein (human)
[4] = molecular target: human FcγRIIa H131 (CD32a H131), biotinylated recombinant protein (human) (UniProt P12318)
[5] = molecular target: human FcγRIIb (CD32b), biotinylated recombinant protein (human) (UniProt P31994)
[6] = molecular target: human FcγRIIIa F158 (CD16 F158), biotinylated recombinant protein (human) (UniProt P08637)

nonfucosylated anti-TIGIT mAb, human IgG1 (SEA-TGT) (antibody; other documents disagree on this pair), sequence (VH): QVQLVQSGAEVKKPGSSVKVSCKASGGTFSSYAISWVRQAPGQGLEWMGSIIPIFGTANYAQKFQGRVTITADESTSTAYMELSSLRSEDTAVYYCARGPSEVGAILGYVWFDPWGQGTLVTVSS
nonfucosylated anti-TIGIT mAb, human IgG1 (SEA-TGT) (antibody; other documents disagree on this pair), sequence (VL): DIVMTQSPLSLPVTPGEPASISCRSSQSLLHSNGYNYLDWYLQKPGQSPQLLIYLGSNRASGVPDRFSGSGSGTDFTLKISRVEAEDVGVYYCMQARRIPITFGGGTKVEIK
nonfucosylated anti-TIGIT mAb, human IgG1 (SEA-TGT) (antibody), sequence (VH): as the sequence (VH) above
nonfucosylated anti-TIGIT mAb, human IgG1 (SEA-TGT) (antibody), sequence (VL): as the sequence (VL) above

Row | Substance | pKd [1] | pKd [2] | pKd [3] | pKd [4] | pKd [5] | pKd [6]
1 | Fc-muted anti-TIGIT mAb, human IgG1 L234A/L235A/P329G (LALA-TGT) (antibody; other documents disagree on this pair) | 4.59 | – | – | – | – | –
2 | anti-TIGIT mAb, human IgG1 S239D/A330L/I332E (DLE-TGT) (antibody) | – | 7.22 | 5.81 | – | – | –
3 | anti-TIGIT mAb, human IgG1 S239D/A330L/I332E (DLE-TGT) (antibody; other documents disagree on this pair) | – | – | – | 5.79 | 5.50 | –
4 | nonfucosylated anti-TIGIT mAb, human IgG1 (SEA-TGT) (antibody) | – | 7.05 | 5.44 | – | – | –
5 | nonfucosylated anti-TIGIT mAb, human IgG1 (SEA-TGT) (antibody; other documents disagree on this pair) | 8.72 | – | – | 5.49 | 4.72 | 6.31
